Measurements: US5911991A, “Malarial binding site in duffy blood group protein” (New York Blood Center, Inc., priority 1996, dated 1999)
Where “and” joins values, the source holds several entries; their conditions need not be identical. Identical values can stand only once. Like-named read-outs stand apart in the source and are kept apart here. Ends that are not written are not given here.

Columns and labels:
[1] = target: T1, Region II of P. falciparum EBA-175 (Plasmodium falciparum, UniProt P19214); experiment: cell-based
T1 construct: expressed in transfected cells; host or cells: Cos7 cells (ATCC CRL 1651)

[2] = tested on: Region II of the P. knowlesi Duffy antigen binding protein (α); conditions: read-out: concentration for 50% inhibition of erythrocyte binding, human erythrocytes
Excerpt: To study the ability of peptides from the Duffy antigen to inhibit erythrocyte binding, a binding assay using the transfected Cos cells was employed, based on a method previously described (Chitnis et al. 1994). This method measures interaction between the malarial Duffy antigen binding ligand expressed by the Cos cells and Duffy protein on erythrocytes. The ability of an analyte to interfere with the cellular binding can be quantitated by comparing the number of Cos cells surrounded by rosettes of erythrocytes in the control versus the number of rosettes formed in the presence of the analyte.
Transfected Cos cells were preincubated for 1 h in a 5% CO2 incubator at 37° C. in 0.9 mL of complete Dulbecco's modified Eagle's medium (cDMEM) containing a series of concentrations (0 to 100 μM) of the peptides. One hundred microliters of human or rhesus erythrocytes at a hematocrit of 10% were added to wells containing the peptides and allowed to bind over 2 h at 37° C. in a 5% CO2 incubator. Non-adherenterythrocytes were removed by washing the Cos7 cells then with PBS. The numbers of rosettes were scored in 20 fields of view at a magnification of 40× using an inverted microscope. Inhibition curves were drawn for three independent experiments and used to determine concentrations of the peptides required to achieve 50% inhibition. […]

[3] = target: Region II of the P. knowlesi β protein expressed on the Cos7 cell surface (Plasmodium knowlesi; Herpes simplex virus) (UniProt P50493)
[4] = target: deglycosylated rhesus Duffy blood group antigen on N-glycanase-treated rhesus erythrocytes (rhesus monkey) (UniProt Q95LF2)
[5] = target: rhesus Duffy blood group antigen on normal rhesus erythrocytes (rhesus monkey) (UniProt Q95LF2)
[6] = tested on: Region II of the P. knowlesi Duffy-binding ligand (α); experiment: MGSA inhibition of rhesus erythrocyte binding, P. knowlesi α Region II; assay type: cell-based, Plasmodium knowlesi
[7] = tested on: Region II of the P. vivax Duffy antigen binding protein; experiment: MGSA inhibition of N-glycanase-treated rhesus erythrocyte binding, P. vivax Region II; assay type: cell-based, Plasmodium vivax
Sequence of Region II of the P. vivax Duffy antigen binding protein (P22290 211-521): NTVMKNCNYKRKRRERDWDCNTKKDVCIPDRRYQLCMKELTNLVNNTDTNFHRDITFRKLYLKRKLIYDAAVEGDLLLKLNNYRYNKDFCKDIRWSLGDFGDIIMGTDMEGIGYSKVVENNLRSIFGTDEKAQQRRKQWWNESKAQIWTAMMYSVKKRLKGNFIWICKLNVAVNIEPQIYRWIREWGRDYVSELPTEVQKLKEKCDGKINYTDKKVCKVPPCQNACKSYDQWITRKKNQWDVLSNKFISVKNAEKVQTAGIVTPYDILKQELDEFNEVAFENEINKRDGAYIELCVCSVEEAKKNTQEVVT
Experimental: Blood was collected in 10% citrate/phosphate/dextrose (CPD) (Baxter, Deerfield, Ill.) and stored at 4° C. for up to four weeks. Standard blood banking methods using two antisera (anti-Fya and anti-Fyb) were used to determine the Duffy phenotypes. Duffy positive erythrocytes used in the binding assays had the Fy(a+b+) phenotype. Erythrocytes were washed three times in RPMI 1640 (GIBCO BRL) and resuspended to a hematocrit of 10% in RPMI 1640 for use in the erythrocyte binding assays. Washed human and rhesus erythrocytes were treated with neuraminidase as described earlier (Comus et al. 1985). Human and rhesus erythrocytes were deglycosylated with the N-glycanase, peptide-N-glycosidase F from Flavobacterium meningosepticum (Oxford Glycosystems). Washed erythrocytes (100 μL) were incubated with mixing for 1 h at 37° C. in 500 μL of PBS containing 10 units of N-glycanase and reaction buffer supplied by the manufacturer. The erythrocytes were washed extensively in PBS to remove the enzyme and stop the deglycosylation.
To study the efficacy of the chemokine MGSA in inhibiting binding, erythrocytes were preincubated in media containing different concentrations of MGSA (0 to 1000 nM) for 1 h at room temperature before they were used in erythrocyte binding assays as described earlier (Su et al. 1995). […]

P. knowlesi β Region II = experiment: MGSA inhibition of N-glycanase-treated rhesus erythrocyte binding, P. knowlesi β Region II; assay type: cell-based, Plasmodium knowlesi; conditions: rhesus erythrocytes, read-out: 50% Inhibition Conc.
P. vivax Region II = conditions: previously shown (Horuk et al. 1993; Chitnis et al. 1994); cited from earlier work
Sequence of P. vivax Region II (P22290 211-521): as above

[8] = target: T2, Duffy blood group antigen (Homo sapiens, UniProt Q16570); conditions: previously shown (Horuk et al. 1993; Chitnis et al. 1994); cited from earlier work
T2 sequence (Q16570 1-336): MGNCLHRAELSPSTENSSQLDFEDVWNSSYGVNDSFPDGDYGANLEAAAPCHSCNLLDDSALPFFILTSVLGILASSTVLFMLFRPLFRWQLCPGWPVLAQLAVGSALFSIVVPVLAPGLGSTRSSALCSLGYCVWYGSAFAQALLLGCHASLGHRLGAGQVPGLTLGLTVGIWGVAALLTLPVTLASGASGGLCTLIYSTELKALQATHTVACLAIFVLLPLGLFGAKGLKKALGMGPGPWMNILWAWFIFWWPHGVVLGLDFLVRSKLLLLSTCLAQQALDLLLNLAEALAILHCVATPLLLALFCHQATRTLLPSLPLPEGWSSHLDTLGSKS

[9] = target: T3, Region II of the P. knowlesi Duffy antigen binding protein (alpha) expressed on the Cos7 cell surface (Plasmodium knowlesi; Herpes simplex …, UniProt P22545)
T3 sequence: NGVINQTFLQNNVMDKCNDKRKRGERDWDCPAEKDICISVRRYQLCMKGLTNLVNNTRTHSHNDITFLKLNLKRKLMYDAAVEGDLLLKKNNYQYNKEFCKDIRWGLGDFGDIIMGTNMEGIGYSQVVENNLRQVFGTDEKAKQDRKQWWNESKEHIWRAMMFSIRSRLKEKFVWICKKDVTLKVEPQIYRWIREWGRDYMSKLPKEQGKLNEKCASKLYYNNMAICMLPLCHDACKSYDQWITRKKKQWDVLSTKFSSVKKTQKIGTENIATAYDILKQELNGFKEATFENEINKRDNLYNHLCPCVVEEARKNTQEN

[10] = target: Region II of the P. vivax Duffy antigen-binding protein (DABP) expressed on the Cos7 cell surface (Plasmodium vivax; Herpes simplex virus, UniProt P22290)
[11] = target: T3, Region II of the P. knowlesi Duffy …; remark: listed apart in the source
[12] = target: Region II of the P. knowlesi β protein expressed on the Cos7 cell surface (Plasmodium knowlesi; Herpes simplex …, UniProt P50493)
[13] = tested on: Rubinstein anti-Fy6 antibody; experiment: Binding of the Rubinstein anti-Fy6 antibody to Duffy peptides (ELISA); set-up: species or system murine

## AELSPSTENSSQLDFEDVWNSSYGVNDSFPDGDYD [HPEP35]
[1]
  IC50: > 100 µM
[2]
  IC50: 4.9 ± 2.3 µM

## AELSPSTQNSSQLNSDLWNFSYDGNDSFPDVDYD [RHPEP34]
[1]
  IC50: > 100 µM

## melanoma growth stimulating activity (MGSA) (from UniProt P09341) (ligand)
[3]
  IC50: > 1000 nM
[4]
  IC50: 5 nM and 6 nM
[5]
  IC50: 5 nM

## melanoma growth stimulating activity [MGSA]
[6]; in words
  inhibition of binding of rhesus erythrocytes to Cos cells expressing Region II of P. knowlesi α: inhibit
[6]; rhesus erythrocytes, treatment none, P. knowlesi α, read-out: 50% Inhibition Conc.
  IC50: 5 nM
[7]; in words, 50% inhibition at nanomolar concentrations
  inhibition of binding of N-glycanase-treated rhesus erythrocytes to P. vivax Region II: inhibits
[7]; rhesus erythrocytes, N-glycanase treated, P. vivax DABP, separate experiments, read-out: 50% Inhibition Conc.
  IC50: 5 nM and 6 nM
P. knowlesi β Region II
  IC50: > 1000 nM
P. vivax Region II
  inhibition of binding of P. vivax Region II to Duffy-positive human erythrocytes: inhibit
[8]
  binding to the Duffy blood group antigen: binds

## AELSPSTENSSQLDFEDVWNSSYGVNDSFPDGDYD [HPEP35]
[9]
  IC50: 4.9 µM
[10]
  IC50: 2900 nM

## AELSPSTQNSSQLNSDLWNFSYDGNDSFPDVDYD [RHPEP34]
[10]
  IC50: 2100 nM
[11]
  IC50: 5.5 µM
[12]
  IC50: > 100 µM

B1: MASSGYVLQAELSPSTENSSQLDFEDVWNSSYGVNDSFPDGDYDANLEAAAPCHSCNLLDDSALPF (peptide)
chain: MASSGYVLQAELSPSTENSSQLDFEDVWNSSYGVNDSFPDGDYDANLEAAAPCHSCNLLDDSALPF
notes: N-terminal peptide of gp-Fyα containing the HPEP35 domain
[13]
  binding in an ELISA assay (Rubinstein antibody): bind
